{
  "source": "paper doi:10.1101/2022.02.07.479474",
  "assay_in_all_cases": "NMR",
  "key": {"PBRM1 BD4 KRK": {"target": "PBRM1 BD4 KRK (UniProt Q86U86 496-637, K511A;R512A;K513A)", "sequence (Q86U86 496-637 K511A/R512A/K513A)": "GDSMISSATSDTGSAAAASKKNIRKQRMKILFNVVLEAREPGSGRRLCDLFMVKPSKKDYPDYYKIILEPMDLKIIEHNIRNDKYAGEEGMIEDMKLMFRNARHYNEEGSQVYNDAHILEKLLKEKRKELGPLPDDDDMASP"}, "PBRM1 BD2 SKY": {"target": "PBRM1 BD2 SKY (UniProt Q86U86 178-291, S275A;K277A;Y281A)", "sequence (Q86U86 178-291 S275A/K277A/Y281A)": "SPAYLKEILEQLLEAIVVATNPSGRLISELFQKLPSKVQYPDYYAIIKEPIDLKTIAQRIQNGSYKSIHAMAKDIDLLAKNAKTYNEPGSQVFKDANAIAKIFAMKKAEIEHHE"}, "PBRM1 BD4": {"target": "PBRM1 BD4 (UniProt Q86U86 496-637)", "sequence (Q86U86 496-637)": "as the sequence (Q86U86 496-637 K511A/R512A/K513A) above, with A16K, A17R, A18K counted along it"}, "PBRM1 BD2": {"target": "PBRM1 BD2 (UniProt Q86U86 178-291)", "sequence (Q86U86 178-291)": "as the sequence (Q86U86 178-291 S275A/K277A/Y281A) above, with A98S, A100K, A104Y counted along it"}},
  "data": [
    {"binder": "GCGUAGACAGCUGUUCGCAGCUGUCUAUGC (structured_RNA)", "note": "[dsRNAI]", "values": [
      {"measurement": "Kd", "setting": "PBRM1 BD4 KRK", "result": "1020 ± 40", "unit": "µM"},
      {"measurement": "Kd", "setting": "PBRM1 BD2 SKY", "result": "200 ± 70", "unit": "µM"},
      {"measurement": "Kd", "setting": "PBRM1 BD4", "result": "120 ± 20", "unit": "µM"},
      {"measurement": "Kd", "setting": "PBRM1 BD2", "result": "25 ± 8", "unit": "µM"}
    ]}
  ]
}
